In paper PMC6981324:

Columns and labels:
Assay in all cases: ITC
[1] = target: double mutant HasR (Arg297Ala/Asn800Ala), DM-HasR (Serratia marcescens)
[2] = target: single mutant HasR (Ile671Gly), Ile671Gly-HasR (Serratia marcescens)
[3] = target: wild-type HasR (WT-HasR) (Serratia marcescens)

Row | Binder | Ka [1] | dH [1] | stoichiometry N [1] | Ka [2] | dH [2] | stoichiometry N [2] | Ka [3] | dH [3] | stoichiometry N [3]
1 | heme-free HasA (apoHasA) (natural protein) MAFSVNYDSSFGGYSIHDYLGQWASTFGDVNHTNGNVTDANSGGFYGGSLSGSQYAISSTANQVTAFVAGGNLTYTLFNEPAHTLYGQLDSLSFGDGLSGGDTSPYSIQVPDVSFGGLNLSSLQAQGHDGVVHQVVYGLMSGDTGALETALNGILDDYGLSVNSTFDQVAAATAVGVQHADSPELLAA | 1.53e+07 M⁻¹ | -26 kcal/M | 1.05 | 1.8e+07 M⁻¹ | -54 kcal/M | 1.06 | 1.7e+08 M⁻¹ | -43 kcal/M | 0.92
2 | heme-loaded HasA (holoHasA) (natural protein) MAFSVNYDSSFGGYSIHDYLGQWASTFGDVNHTNGNVTDANSGGFYGGSLSGSQYAISSTANQVTAFVAGGNLTYTLFNEPAHTLYGQLDSLSFGDGLSGGDTSPYSIQVPDVSFGGLNLSSLQAQGHDGVVHQVVYGLMSGDTGALETALNGILDDYGLSVNSTFDQVAAATAVGVQHADSPELLAA | 2.4e+06 M⁻¹ | -15 kcal/M | 1.02 | 9.4e+07 M⁻¹ | -46 kcal/M | 0.99 | 1.1e+06 M⁻¹ | -21 kcal/M | 1.11
